{"source": "paper PMC12449476", "about": "“Transient ligand contacts of the intrinsically disordered N-terminus of neuropeptide Y2 receptor regulate arrestin-3 recruitment” (Nature Communications, 2025)", "key": {"Nluc-Y2R-eYFP D/E35-39K": {"biological_target": "T1, Nluc-Y2R-eYFP D/E35-39K (Homo sapiens, UniProt P49146, D35K/E37K/E39K)", "T1 construct": "expressed in transfected cells; host or cells: HEK293, transiently transfected, membrane preparations", "T1 sequence (P49146 1-381 D35K/E37K/E39K)": "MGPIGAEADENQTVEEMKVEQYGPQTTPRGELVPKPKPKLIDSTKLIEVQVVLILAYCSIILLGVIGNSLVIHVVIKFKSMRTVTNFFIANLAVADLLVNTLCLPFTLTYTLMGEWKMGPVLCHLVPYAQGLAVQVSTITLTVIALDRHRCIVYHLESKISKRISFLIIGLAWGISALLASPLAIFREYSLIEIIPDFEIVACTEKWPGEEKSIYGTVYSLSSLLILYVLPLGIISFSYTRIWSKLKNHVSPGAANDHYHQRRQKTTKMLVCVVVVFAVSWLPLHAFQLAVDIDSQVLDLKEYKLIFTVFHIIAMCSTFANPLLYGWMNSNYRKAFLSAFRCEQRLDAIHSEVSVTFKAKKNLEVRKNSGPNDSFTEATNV", "assay": "NanoBRET equilibrium ligand binding", "description": "(§1) Briefly, for each data point, membranes containing 0.03 μg total protein were suspended in ice-cold BRET binding buffer (Hank’s balanced salt solution (HBSS) containing 20 mM HEPES (pH 7.4), 0.1% bovine serum albumin (BSA)). The assay was performed in solid black 96-WP with a total assay volume of 100 μL in technical duplicate or triplicate. […] To determine unspecific binding, 100 µM of the Y2R antagonist JNJ-31020028 (Selleck Europe) were added to each well. […] To start the dissociation measurement, the antagonist JNJ-31020028 was added to a final concentration of 50 µM (20 µL) using the built-in injector system of the plate reader and the BRET decay was measured for 20 min. Raw BRET was calculated as the ratio of fluorescence to luminescence, and the background value of the unspecific binding controls was subtracted to obtain the netBRET signal."}, "[1]": {"biological_target": "T2, Nluc-Y2R-eYFP D42A-S43A-T44A (Homo sapiens, UniProt P49146, D42A/S43A/T44A)", "T2 construct": "expressed in transfected cells; host or cells: membrane preparations of transiently transfected HEK293", "T2 sequence (P49146 1-381 D42A/S43A/T44A)": "T1 sequence (P49146 1-381 D35K/E37K/E39K) with K35D, K37E, K39E, D42A, S43A, T44A", "assay": "NanoBRET equilibrium ligand binding", "description": "as §1"}, "Nluc-Y2R-eYFP E15-20K": {"biological_target": "T3, Nluc-Y2R-eYFP E15-20K (Homo sapiens, UniProt P49146, E15K/E16K/E20K)", "T3 construct": "expressed in transfected cells; host or cells: membrane preparations of transiently transfected HEK293", "T3 sequence (P49146 1-381 E15K/E16K/E20K)": "T1 sequence (P49146 1-381 D35K/E37K/E39K) with E15K, E16K, E20K, K35D, K37E, K39E", "assay": "NanoBRET equilibrium ligand binding", "description": "as §1"}, "WT Nluc-Y2R-eYFP": {"biological_target": "T4, WT Nluc-Y2R-eYFP (Homo sapiens, UniProt P49146)", "T4 construct": "expressed in transfected cells; host or cells: membrane preparations of transiently transfected HEK293", "T4 sequence (P49146 1-381)": "T1 sequence (P49146 1-381 D35K/E37K/E39K) with K35D, K37E, K39E", "details": "cited from earlier work", "source_text": "In the following, we are addressing the Reviewer’s comments point‐by‐point. We quote statements from the Reviewer in bold face. We refer to changes made in the manuscript in yellow italics. Reviewer #1 (Remarks to the Author): In this work ..."}}, "note": "Substitutions are numbered along the chain they refer to.", "data": [{"substance": "K18-Tamra-NPY: tetramethylrhodamine(Tamra)-labeled peptide (K^18-Tamra-NPY)", "values": [{"measurement": "BRETmax", "setting": "Nluc-Y2R-eYFP D/E35-39K; HEK293 membranes, 10 min RT, mean, 95% CI 0.025 to 0.0287", "value": 0.0270}, {"measurement": "Fraction high affinity", "setting": "Nluc-Y2R-eYFP D/E35-39K; mean, 95% CI 0 to 0.1938", "value": 0.0957}, {"measurement": "KD, high replicates (log)", "setting": "Nluc-Y2R-eYFP D/E35-39K; replicate 1", "value": -9.38}, {"measurement": "KD, low replicates (log)", "setting": "Nluc-Y2R-eYFP D/E35-39K; replicate 1", "value": -6.53}, {"measurement": "KD, high replicates (log)", "setting": "Nluc-Y2R-eYFP D/E35-39K; replicate 2", "value": -9.46}, {"measurement": "KD, low replicates (log)", "setting": "Nluc-Y2R-eYFP D/E35-39K; replicate 2", "value": -6.67}, {"measurement": "KD, high replicates (log)", "setting": "Nluc-Y2R-eYFP D/E35-39K; replicate 3", "value": -10.11}, {"measurement": "KD, low replicates (log)", "setting": "Nluc-Y2R-eYFP D/E35-39K; replicate 3", "value": -6.65}, {"measurement": "BRETmax", "setting": "[1]; HEK293 membranes, 10 min RT, mean, 95% CI 0.0040 to 0.0080", "value": 0.0060}, {"measurement": "Low-affinity state affinity reduction vs wild-type", "setting": "[1]; NanoBRET, HEK293 membranes", "value": "about three-fold reduced"}, {"measurement": "Fraction high affinity", "setting": "[1]; mean, 95% CI 0.0649 to 0.2365, P<0.01 vs WT", "value": 0.1507}, {"measurement": "KD, high replicates (log)", "setting": "[1]; replicate 1", "value": -9.81}, {"measurement": "KD, low replicates (log)", "setting": "[1]; replicate 1", "value": -6.11}, {"measurement": "KD, high replicates (log)", "setting": "[1]; replicate 2", "value": -11.68}, {"measurement": "KD, low replicates (log)", "setting": "[1]; replicate 2", "value": -6.26}, {"measurement": "KD, high replicates (log)", "setting": "[1]; replicate 3", "value": -9.11}, {"measurement": "KD, low replicates (log)", "setting": "[1]; replicate 3", "value": -5.98}, {"measurement": "BRETmax", "setting": "Nluc-Y2R-eYFP E15-20K; HEK293 membranes, 10 min RT, mean, 95% CI 0.0243 to 0.0371", "value": 0.0307}, {"measurement": "Fraction high affinity", "setting": "Nluc-Y2R-eYFP E15-20K; mean, 95% CI 0.0705 to 0.0862", "value": 0.0783}, {"measurement": "KD, high replicates (log)", "setting": "Nluc-Y2R-eYFP E15-20K; replicate 1", "value": -9.24}, {"measurement": "KD, low replicates (log)", "setting": "Nluc-Y2R-eYFP E15-20K; replicate 1", "value": -6.58}, {"measurement": "KD, high replicates (log)", "setting": "Nluc-Y2R-eYFP E15-20K; replicate 2", "value": -9.21}, {"measurement": "KD, low replicates (log)", "setting": "Nluc-Y2R-eYFP E15-20K; replicate 2", "value": -6.52}, {"measurement": "KD, high replicates (log)", "setting": "Nluc-Y2R-eYFP E15-20K; replicate 3", "value": -9.93}, {"measurement": "KD, low replicates (log)", "setting": "Nluc-Y2R-eYFP E15-20K; replicate 3", "value": -6.58}, {"measurement": "KD,high", "setting": "WT Nluc-Y2R-eYFP; G-protein-dependent high-affinity state", "value": "subnanomolar"}, {"measurement": "Kd", "setting": "WT Nluc-Y2R-eYFP; G-protein-independent low-affinity state", "value": "~300", "unit": "nM"}]}]}
